Measured values published in patent US6846645B2, “Multiplexed enzymatic assays” (Aclara Biosciences, Inc., priority 2000, dated 2005).

Key:
Receptor II kinase [1] = experiment: Screening assay for competitive inhibitors: competition between insulin β chain and EGF, monitored by receptor II kinase activity; type: biochemical
Method: Before adding kinase substrate, incubate the mixture for 5 min to activate receptor II kinase by binding to insulin β. The incubation was done at room temperature for 30 min. Either 10 μL of 200 mM EDTA is added or the sample is frozen to stop the reaction before analysis. For the frozen sample, analysis was performed immediately after thawing the samples. Analysis was done on a modified Henry chip with 5 mm effective separation length. The injection was performed by applying 400 V at well #2 for 45 s while grounding other wells. The separation conditions are: 0 V for Well #1, 400 V for well #2 and 4, 700 V for well #3.

Receptor II kinase [2] = experiment: Receptor II assay: ligand enhancement of receptor II kinase activity; type: biochemical; settings: saturating (high) ligand concentrations, 25 μM substrate, fixed amount of receptor II
Method: Before adding kinase substrate, incubate the mixture for 5 min to activate receptor II kinase by binding to insulin β. The incubation was done at room temperature for 30 min. Either 10 μL of 200 mM EDTA is added or the sample is frozen to stop the reaction before analysis. For the frozen sample, analysis was performed immediately after thawing the samples.
Analysis was done on a modified Henry chip with 5 mm effective separation length. The injection was performed by applying 400 V at well #2 for 45 s while grounding other wells. The separation conditions are: 0 V for Well #1, 400 V for well #2 and 4, 700 V for well #3.
As another example, receptor II (an insulin-related receptor) was studied in connection with insulin-like growth factor (IGF). A significant enhancement (>4 fold) in receptor II kinase activity was observed. Other ligands tested include insulin, insulin α and β chain. Both insulin and insulin β chain stimulated this receptor kinase activity by as much as 20 fold when a high concentration was used (Table 2). […] For this experiment, 25 μM substrate was used with a fixed amount of receptor II and various amounts of ligands to ensure a saturated binding between receptor and ligand.

Row | Substance | extent of competition with activating ligand (Receptor II kinase [1]; higher insulin β concentration (15 μM), FIG. 14A) | extent of competition with activating ligand (Receptor II kinase [1]; lower insulin β chain concentration of 3 μM, FIG. 14B) | IC50 (Receptor II kinase [1]; read-out: IC50 of EGF competing with insulin β chain activation of receptor II kinase, insulin β chain at 3 μM and 15 μM, fixed receptor concentration) [µM] | Receptor II Kinase Activity Enhancement (fold) (Receptor II kinase [2]) | Receptor II Kinase Activity Enhancement (fold) (Receptor II kinase [2]; listed as Insulin α chain)
1 | Epidermal growth factor [EGF] | did not show complete competition | near complete competition | 0.2 to 0.3 |  | 
2 | Insulin α chain |  |  |  | ˜3 fold | about 3 fold
3 | Insulin β chain |  |  |  | >20 fold | 
4 | insulin |  |  |  | >20 fold | 
